B1: TPR t1 (parent)
chain: GACCAAUCUGCCCUCAGAGCUCGAGAACAUCUUCGGAUGCAGAGGAGGCAGGCUUCGGUGGCGCGAUAGCGCCAACGUCCUCAACCUCCAAUGCAUCCCACCACAUGAUGAUGCCUGAAGAGCCUUGGUUUUUUG

Variants of: B1
Assay: polymerase ribozyme fitness, log enrichment relative to wild type (log ratio); higher = more active; in vitro selection for triplet polymerase activity
How it was run: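 For each subunit of a heterodimeric triplet polymerase ribozyme, a mutant library was built by PCR and transcribed, then taken through a single in vitro selection round in triplicate. Selection involved annealing to a biotinylated primer, the partner subunit and triplets, incubation frozen at −7 °C, gel excision of extended constructs, capture on streptavidin beads and RT-PCR. Genotypes were retained after Illumina sequencing of inputs and outputs only with ≥10 input reads and ≥1 read in each output. Fitness is defined as the logarithm of a genotype's enrichment relative to wild-type enrichment, using inverse-variance-weighted averages across replicates, with the logarithm taken to base 2.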

In order of rising “polymerase ribozyme fitness (log ratio)” value:
1. A24G U54A A68U G71A U112A  -8.22
2. U21G A41U G60C C80U U92C C97A A121U  -8.22
3. A24U G39A  -7.92
4. A24U G42U A43U C94G U112A U129A  -7.92
5. A24C A43U C49A C79A C98U C114U  -7.85
6. G25A C31G U32G C40U C72U U106C A108U C124A  -7.62
7. G25A G71A C79G C115U  -7.59
8. C22A C31G G61A C102A C123G  -7.56
9. A24C G48C U87A C97U C124A  -7.52
10. C22U A90U U112G  -7.35
11. G25A C31U G63U G77U G117A C124U  -7.34
12. A24U U32A G48C C70A A74U U81A A121G U125G  -7.22
13. G23A C31U G122U C124G  -7.15
14. A24C C40U G42A C73A A95U C101U G120A U130C  -7.09
15. G25U G35A A41U U112G  -7.04
16. C22A G48A G57U C70A A83G A91U C115A  -7.04
17. C22A A26U A27U C76U A95G G110A  -6.96
18. A24U C40U  -6.96
19. A26U G47U C64A C85U G107C A108G G110C  -6.9
20. G23U A90U  -6.86
21. C22A A27G C85G A100C C101U G120C G127A  -6.82
22. G25U U33A A68U A111C G127C  -6.82
23. C22U A105U  -6.8
24. G25U C34G G36C C97A U112G  -6.79
25. C22A C31G G71U U92C G93A C114U  -6.77
26. A24U G45A G60A C115U  -6.73
27. G25A G63C  -6.68
28. A26C G45C U87C  -6.66
29. G25A C40U G63A G113C U129A  -6.66
30. A27C C31U A46C A84C C89A G110U U112A C123U U125A  -6.63
31. A26U G44U C64G C89U U112G  -6.55
32. A24U U116C G128U  -6.51
33. A24U A41G A43C U96A C102U A111U  -6.49
34. G23U G45A C56U C98A U112G  -6.47
35. A24G A29U G44U C80A  -6.46
36. A24U A84U C114U G122A U132C  -6.39
37. G23A C73A A83G G120U  -6.38
38. A26U C62U U78C G128C  -6.34
39. G25U C31G G42A A46U C70U G110U G128U  -6.32
40. A26G C28G C70G C85U C98U G107U A119G G122A  -6.27
41. G23U G63C  -6.19
42. A24U A119G  -6.17
43. A26U A84C C102U C115A U133G  -6.15
44. C22U A26U C53U G69C A119G  -6.14
45. C22G G35C C64U  -6.13
46. G25U A37U C40U G44U G47C C64A U106G U112A  -6.12
47. C22U A91U U112G  -6.06
48. C22A C49U  -6.04
49. A24G G48A C64U U81C A108U G120C  -6
50. G23A G51A A111G  -6
51. A26G G60U G77A A84C C102G U112A U116C  -5.99
52. A26C C97U  -5.92
53. A24U A27U C28U G36U A111U  -5.92
54. A24U G61A  -5.9
55. G23U G69C G120A  -5.9
56. C22A A41U A90U A121G  -5.71
57. C22U G65U C72G C124U  -5.7
58. G25U G69U C102U A121U  -5.66
59. C22A G42U G71U G113C  -5.64
60. G25U A37U  -5.61
61. A26U U59A G63A  -5.57
62. C22U C56A C72A A83C U96A  -5.56
63. C22G U78A U87A C88A C102A  -5.54
64. A24U C94U A103U G110C G120C U131A  -5.54
65. C22A C53A G110C U131A  -5.4
66. G23A C53U  -5.33
67. A26G G42C U59C G113A  -5.32
68. A27C C28A A103U A105U U106G A111U G117U C123U  -5.3
69. A24G G36U G93C U112A  -5.3
70. A24G C72U C88A G93U  -5.29
71. C22U A27U G45C U54G C56G G63C A121U  -5.28
72. C22G C97A  -5.26
73. G23C A26G C124U  -5.18
74. A24G C70G C97A A121G  -5.13
75. C22A G61A A83G U96A C114A  -5.1
76. A26G G45C G48U C88U  -5.02
77. C22G A41U G93U  -5.01
78. A27C A84G  -5
79. A26U C70U U78C  -4.92
80. A26U C79G C124U  -4.91
81. C22G G35U A121C U132C  -4.9
82. C22A A26G G39A G63C C99A C115G  -4.89
83. C22A G44C  -4.8
84. C22G U32G C49A G61U U87C  -4.78
85. C22G C82A C94G A111U  -4.76
86. C22A C76U  -4.72
87. U21G G60A G63C U78A C115U A119U U130A  -4.71
88. C22U G39A  -4.66
89. U21G A66G C73A C94A  -4.63
90. G23A G69U G93U  -4.63
91. C22A A74G C97U  -4.56
92. G23A A26G  -4.52
93. A26C U112C  -4.51
94. A26G A46C G52C  -4.5
95. A26G U38A G39U  -4.5
96. C22G C56A C73U  -4.49
97. A26U A74G C98U  -4.46
98. C22A G52A  -4.45
99. C22G U38G  -4.45
100. A24G C88G C123A U129A  -4.43
101. C22G G57C C89A A95G A111U A121U  -4.42
102. A26U U32C C94A  -4.33
103. A26U G69C  -4.28
104. A26G G45C A75U  -4.25
105. C22A G120U  -4.24
106. C22G A29C G110U  -4.24
107. C22A G120U U131A  -4.18
108. A24G C62U C104A C115A G135C  -4.17
109. A27C A95U C114U  -4.15
110. C22G G52C C79U  -4.14
111. A24U C56U  -4.09
112. A26U G57U  -4.04
113. C22G A43U  -3.99
114. A26G G45A G48U  -3.98
115. C22U G60A  -3.85
116. C22G C49G  -3.79
117. C22U C56G  -3.79
118. A26U G61C  -3.63
119. C22G G71U  -3.63
120. C22U A50C C124A  -3.54
121. G25C G61U  -3.53
122. U21G A46C C49G  -3.41
123. A24G C85A U96A  -3.35
124. A26C U106A  -3.34
125. C22G G48A  -3.33
126. C22G C86G G110U A121U  -3.31
127. A26G U130A  -3.31
128. C22G G45A  -3.31
129. C22G A90U U106A A111U  -3.25
130. A27C C56A  -3.22
131. A24G G63U  -3.19
132. G25A G61U  -3.17
133. A26U G71A  -3.13
134. A26U G120U  -3.12
135. A26G G44U C56U G120U U130A  -2.98
136. A24G G77A C115U  -2.98
137. A26U U78C  -2.92
138. A24G U38A U55A  -2.85
139. A26G A37U C123U U133A  -2.78
140. A24G C62A  -2.63
141. A24G A90U  -2.52
142. C22G A27U C88U A121U  -2.51
143. C22U A121U  -2.45
144. A26G G44C  -2.38
145. C22U A74C C79U A121U  -2.29
146. A24G A41C  -2.27
147. C22U G69U  -2.26
148. A24G U131A  -2.25
149. C22G C72G C124A  -2.22
150. A26U C72U C123U  -2.2
151. A26G C86U  -2.13
152. A24G C53U  -2.07
153. A24G C82G A84U U106C  -2.06
154. A24G A111G  -2.06
155. C22G C56U A105U U112C  -2.05
156. U21G G61U G120U C123A  -1.78
157. A24G G52A  -1.78
158. U21G C62A C124A U131A  -1.77
159. C22G U112A A118U  -1.75
160. A26U C123G  -1.74
161. A26U C94U C123G U132C  -1.68
162. A26G C123G C124U G135U  -1.25
163. A24G G69U A100U  -1.09
164. U21G C56U  -1.08
165. U21G U59A A83U C123U U131C  -0.796
166. A24G C88U A95C C124A U133A  -0.316
167. A24G A119G A121U  1.12
